From paper PMC3282769, “New Insight into the Transcarbamylase Family: The Structure of Putrescine Transcarbamylase, a Key Catalyst for Fermentative Utilization of Agmatine” (PLoS ONE, 2012)

Legend:
[1] = system: NCCCCN; assay: carbamylputrescine production, colorimetric (Archibald reaction); hyperbolic fit; assay type: biochemical, Enterococcus faecalis; details: 10 mM carbamylphosphate, 50 mM Tris-HCl pH 7, 37°C
[2] = system: NCCCCN; assay: purified protein; details: 10 mM carbamylphosphate, 50 mM Tris-HCl pH 7, 37°C, 230YGLY233 replaced by VSMG

Substance | Km [1] | Km [2]
PTC (putrescine transcarbamylase) (Enterococcus faecalis V583) | 1.41 ± 0.22 mM | 
PTC (putrescine transcarbamylase) (Enterococcus faecalis V583; G231S/L232M/Y230V/Y233G) |  | 32.9 ± 8.8 mM
